These results are taken from paper PMC2173270 (The Journal of Cell Biology, 2002).

By Kd is commonly meant the equilibrium constant for the complex coming apart. Read a low Kd as tighter binding.

B1: CC1 (aa 637–699 of rat p115) (peptide)
peptide: Biotin-KEEEVKKTLEQHDNIVTHYKNMIREQDLQLEELKQQVSTLKCQNEQLQTAVTQQASQIQQHKD
B2: Ykt6p (endogenous) (natural protein)
chain: MKLYSLSVFYKGEPKAVLLKAAYDVSSFSFFQRSSVQEFMTFTSQLIVERSAKGSRASVKEQEYLCHVYVRSDSLAGVVIADSEYPSRVAFTLLEKVLDEFSKQVDRIDWPVGSPATIHYTALDGHLSRYQNPREADPMSKVQAELDETKIILHNTMESLLERGEKLDDLVSKSEVLGTQSKAFYKTARKQNSCCAIM
B3: His–GOS-28 (domain or fragment)
chain: AAGTSNYWEDLRKQARQLENELDLKLVSFSKLCTSYSHSSARDGGRDRYSSDTTPLLNGSSQDRMFETMAIEIEQLLARLTGVNDKMAEYTHSAGVPSLNAALMHTLQRHRDILQDYTHEFHKTKANFMAIRERENLMGSVRKDIESYKSGSGVNNRRTELFLKEHDHLRNSDRLIEETISIAMATKENMTSQRGMLKSIHSKMNTLANRFPAVNSLIQRINLRKRRD
B4: syntaxin-5 (endogenous) (natural protein)
chain: MIPRKRYGSKNTDQGVYLGLSKTQVLSPATAINSSSDIAPLPTPVALVPSPPDTMSCRDRTQEFLSACKSLQSRQNGIQTNKPALHATRQCSEFTLMARRIGKDLSNTFAKLEKLTILAKRKSLFDDKAVEIEELTYIIKQDINSLNKQIAQLQDFVRAKGSQSGRHLQTHSNTIVVSLQSKLASMSNDFKSVLEVRTENLKQQRNRREQFSRAPVSALPLAPNNLGGGPIVLGGESRASRDVAIDMMDPRTSQQLQLIDEQDSYIQSRADTMQNIESTIVELGSIFQQLAHMVKEQEETIQRIDENVLGAQLDVEAAHSEILKYFQSVTSNRWLMVKIFLILIVFFIIFVVFLA
B5: GST–syntaxin-5 (domain or fragment)
chain: MIPRKRYGSKNTDQGVYLGLSKTQVLSPATAINSSSDIAPLPTPVALVPSPPDTMSCRDRTQEFLSACKSLQSRQNGIQTNKPALHATRQCSEFTLMARRIGKDLSNTFAKLEKLTILAKRKSLFDDKAVEIEELTYIIKQDINSLNKQIAQLQDFVRAKGSQSGRHLQTHSNTIVVSLQSKLASMSNDFKSVLEVRTENLKQQRNRREQFSRAPVSALPLAPNNLGGGPIVLGGESRASRDVAIDMMDPRTSQQLQLIDEQDSYIQSRADTMQNIESTIVELGSIFQQLAHMVKEQEETIQRIDENVLGAQLDVEAAHSEILKYFQSVTSNR
B6: CC4 (aa 843–930 of rat p115) (peptide)
peptide: TTDVEGRLSALLQETKELKNEIKALSEERTAIQKQLDSSNSTIAILQTEKDKLYLEVTDSKKEQDDLLVLLADQDQKILSLKSKLKDL
modifications: NH2-terminally biotinylated
B7: GOS-28 (endogenous) (natural protein)
chain: MAAGTSNYWEDLRKQARQLENELDLKLVSFSKLCTSYSHSSARDGGRDRYSSDTTPLLNGSSQDRMFETMAIEIEQLLARLTGVNDKMAEYTHSAGVPSLNAALMHTLQRHRDILQDYTHEFHKTKANFMAIRERENLMGSVRKDIESYKSGSGVNNRRTELFLKEHDHLRNSDRLIEETISIAMATKENMTSQRGMLKSIHSKMNTLANRFPAVNSLIQRINLRKRRDSLILGGVIGICTILLLLYAFH

Data set [1] deals with the molecule itself. Kind of data set: SEC + other: laser light scattering + native gel or EMSA. In general terms: Mobility shift assays separate free from complexed probe on a gel.
The target of a further data set is T1, GS15 (endogenous) (rat (endogenous in rat liver Golgi …, UniProt O35152 1-111)).
T1 sequence: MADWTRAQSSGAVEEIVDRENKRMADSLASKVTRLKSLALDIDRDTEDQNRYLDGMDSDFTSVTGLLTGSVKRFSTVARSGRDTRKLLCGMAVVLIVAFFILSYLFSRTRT
Kind of data set: co-IP.

The data set “GST–syntaxin-5” concerns the target B5. Put plainly: pull-down.
The next data set addresses T2, p115 (rat, UniProt P41542 1-959).
T2 sequence: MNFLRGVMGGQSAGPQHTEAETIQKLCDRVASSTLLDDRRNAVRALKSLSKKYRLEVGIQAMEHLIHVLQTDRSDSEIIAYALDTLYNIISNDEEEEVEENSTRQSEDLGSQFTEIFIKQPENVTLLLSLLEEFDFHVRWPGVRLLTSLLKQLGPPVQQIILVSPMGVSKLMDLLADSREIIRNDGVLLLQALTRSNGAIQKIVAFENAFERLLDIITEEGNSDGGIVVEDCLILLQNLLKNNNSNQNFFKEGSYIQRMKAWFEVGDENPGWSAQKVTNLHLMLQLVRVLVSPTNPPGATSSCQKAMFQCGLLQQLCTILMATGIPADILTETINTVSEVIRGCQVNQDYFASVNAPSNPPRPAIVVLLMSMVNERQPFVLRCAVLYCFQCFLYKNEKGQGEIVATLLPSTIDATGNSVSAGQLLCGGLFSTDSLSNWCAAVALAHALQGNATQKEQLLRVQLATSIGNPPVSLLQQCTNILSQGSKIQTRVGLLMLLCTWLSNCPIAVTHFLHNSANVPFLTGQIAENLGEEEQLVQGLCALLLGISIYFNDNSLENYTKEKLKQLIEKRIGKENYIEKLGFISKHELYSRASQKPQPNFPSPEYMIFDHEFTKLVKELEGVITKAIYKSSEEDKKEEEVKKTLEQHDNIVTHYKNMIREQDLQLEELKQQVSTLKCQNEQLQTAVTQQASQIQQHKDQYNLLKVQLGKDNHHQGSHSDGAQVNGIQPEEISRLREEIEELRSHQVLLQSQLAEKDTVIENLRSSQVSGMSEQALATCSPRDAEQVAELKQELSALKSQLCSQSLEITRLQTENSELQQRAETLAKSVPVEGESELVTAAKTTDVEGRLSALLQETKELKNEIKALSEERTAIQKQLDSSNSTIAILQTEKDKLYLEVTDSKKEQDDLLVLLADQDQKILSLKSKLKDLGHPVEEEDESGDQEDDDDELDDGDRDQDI
Kind of data set: pull-down.

No end group written: not given here. *: point of attachment. Biotin = O=C1N[C@H]2[C@H](CS[C@H]2CCCCC(=O)*)N1

With B1, in data set [1], the percent dimeric is roughly 20% and the percent tetrameric was roughly 10%.

Take B2: the “fold enhancement of complex formation by p115 against no p115” value (“fold enhancement … against no p115” below) in the data set with GS15 (endogenous) was roughly 5 fold. Regarding B3, in the data set with GST–syntaxin-5, the “fold stimulation of the interaction by p115 against no p115” value is 4 fold. The same molecule had an equilibrium dissociation constant (Kd) with p115 of 1500 nM. In the case of B4, in the data set with GS15 (endogenous), the “fold enhancement … against no p115” value is roughly 5 fold.

Take Biotin-QPEEISRLREEIEELRSHQVLLQSQLAEKDTVIENLRS [CC2 (aa 728–765 of rat p115)]: in data set [1], the percent dimeric is roughly 20% and the percent tetrameric is roughly 10%. On to B5, for which the equilibrium dissociation constant (Kd) with p115 came to 1800 nM. As for B6, in data set [1], the percent dimeric is roughly 20% and the percent tetrameric is roughly 10%. As to B7, in the data set with GS15 (endogenous), the “fold enhancement … against no p115” value was roughly 5 fold. Regarding Biotin-DAEQVAELKQELSALKSQLCSQSLEITRLQTENSELQQRAETLAK [CC3 (aa 783–827 of rat p115)], in data set [1], the percent dimeric is roughly 20% and the percent tetrameric is roughly 10%.
